From the RNAGym collection of RNA variant scans (doi:10.7554/elife.80360)

B1: Hairpin Ribozyme (parent)
chain: GUCCUCUUUCACGUGCGCGUGAAAGAGAGAAGUGAACCAGAGAAACACACGUUGUGGUAUAUUACCUGGUA

Variants of: B1
Assay: self-cleavage, relative activity (ratio to wild type); higher = more cleavage; co-transcriptional
G57U C66U showed a self-cleavage of 0.244. In the case of G29U U63C, the self-cleavage is reported as 0.084. A31G C66G gave a self-cleavage of 0.211. In the case of A47U U52A, the self-cleavage is reported as 0.148. G25U G54U gave a self-cleavage of 0.399. Variant U53G U62C has a self-cleavage of 0.281. A30G U53A showed a self-cleavage of 0.0621. In the case of G13C A44C, the self-cleavage is reported as 0.281. Work on G21A A35C yielded a self-cleavage of 0.788. For C6A G27A, the self-cleavage was 0.126. Variant U9A G19C has a self-cleavage of 0.588. With G25C U55A the self-cleavage was 0.163. Work on U14C G56A yielded a self-cleavage of 0.143. U7A A41G showed a self-cleavage of 0.973. G1A A49U gave a self-cleavage of 0.061. In the case of A11C G29A, the self-cleavage is reported as 0.128. For U2A U55A, the self-cleavage was 0.103. Variant A11C A59U has a self-cleavage of 0.112. C6G U63C showed a self-cleavage of 0.142. With A30C C65U the self-cleavage was 0.12. For U52A U63C, the self-cleavage was 0.32. G25C A36U showed a self-cleavage of 0.397. A28C A64U gave a self-cleavage of 0.237. C4A U60G gave a self-cleavage of 0.139. A30U A61G showed a self-cleavage of 0.0939. For C16A A23C, the self-cleavage was 0.983. C18A G54A gave a self-cleavage of 0.591. For G34U U58G, the self-cleavage was 1.25. In the case of U2A U9G, the self-cleavage is reported as 0.179. A24C U62G showed a self-cleavage of 0.199. G17C A64G showed a self-cleavage of 0.592. In the case of G17A U53G, the self-cleavage is reported as 0.932. For A47G G54C, the self-cleavage was 0.266. In the case of U8G G15C, the self-cleavage is reported as 0.639. Work on G34A C66G yielded a self-cleavage of 0.184. Work on A36G C38U yielded a self-cleavage of 0.523. Work on U60G U67A yielded a self-cleavage of 0.144. Work on A28C A49U yielded a self-cleavage of 0.192. Variant C38A U63G has a self-cleavage of 0.165. U53G G56A showed a self-cleavage of 0.195. C38U A43U showed a self-cleavage of 0.153. In the case of G25A C38U, the self-cleavage is reported as 0.283. G54A G57U showed a self-cleavage of 0.27. With C4A A31G the self-cleavage was 0.101. In the case of A43U G68A, the self-cleavage is reported as 0.0877. Variant U14G A30G has a self-cleavage of 0.0762. With A41C U62G the self-cleavage was 0. Variant C3G G69C has a self-cleavage of 0.177. For C12A G32C, the self-cleavage was 0.0893. G1A G40U showed a self-cleavage of 0.123. For G13A G57C, the self-cleavage was 0.164. With U14C A45C the self-cleavage was 0.206. Work on A35C G56A yielded a self-cleavage of 0.161. A26G A59C gave a self-cleavage of 0.162. For U2A C66U, the self-cleavage was 0.127. C10G G57U gave a self-cleavage of 0.243. For A41G U58A, the self-cleavage was 0.46. In the case of A36G C37G, the self-cleavage is reported as 0.287. A26U A35G showed a self-cleavage of 0.786. In the case of C48A U63C, the self-cleavage is reported as 0.198. G1C G34C gave a self-cleavage of 0.211. With C4U G40U the self-cleavage was 0.0478. Variant G29U G56U has a self-cleavage of 0.143. In the case of C6U G68A, the self-cleavage is reported as 0.209. Work on C4A U53A yielded a self-cleavage of 0.363. U33C C66G gave a self-cleavage of 0.112. In the case of A28G G68U, the self-cleavage is reported as 0.372. Work on A30G A59C yielded a self-cleavage of 0.0815. For G56C U60A, the self-cleavage was 0.106. G29C U63A showed a self-cleavage of 0.217. For A30U C66A, the self-cleavage was 0.096. C50U U55A showed a self-cleavage of 0.32. For U14A U20A, the self-cleavage was 0.67. Work on A30C G68A yielded a self-cleavage of 0.0646. G1C A64U showed a self-cleavage of 0.107. Work on G27C U60C yielded a self-cleavage of 0.333. In the case of A49C A61C, the self-cleavage is reported as 0.124. In the case of G56A C66U, the self-cleavage is reported as 0.296. Work on A31U G51U yielded a self-cleavage of 0.121. G17U U52C gave a self-cleavage of 0.816. With G27U U52G the self-cleavage was 0.114. A41G C65A gave a self-cleavage of 0.693. Work on A45G U67C yielded a self-cleavage of 0.12. Work on A44C U60C yielded a self-cleavage of 0.0498. Work on U7G A43G yielded a self-cleavage of 0.023. In the case of U8C C50A, the self-cleavage is reported as 0.144. C4A A59C gave a self-cleavage of 0.191. Work on A28U U67C yielded a self-cleavage of 0.12. With G1A A22U the self-cleavage was 0.109. Work on A23G A44C yielded a self-cleavage of 0.0975. With G40A G56C the self-cleavage was 0.146. U7A U70C showed a self-cleavage of 1.04. U2C U8C gave a self-cleavage of 0.236. Work on C46U U67G yielded a self-cleavage of 0.171. Variant A22C C66G has a self-cleavage of 0.0576. Variant U9A G13A has a self-cleavage of 0.471. For A35U G69U, the self-cleavage was 0.111. Variant C16A A26C has a self-cleavage of 0.488. G34U G56U gave a self-cleavage of 0.225. In the case of U53A U58A, the self-cleavage is reported as 0.746. Variant G25A G56U has a self-cleavage of 0.117. Work on G1A U70A yielded a self-cleavage of 0.198. A39U G57U showed a self-cleavage of 0.123. In the case of A22U G40A, the self-cleavage is reported as 0.218. Variant G17U U62G has a self-cleavage of 0.122. With A59G U60A the self-cleavage was 0.164. With C4A G69U the self-cleavage was 0.169. Variant G34A G54U has a self-cleavage of 0.719. For C12A U63A, the self-cleavage was 0.102. G42C U53A gave a self-cleavage of 0.332. With A28U U33A the self-cleavage was 0.152. With A43G G51A the self-cleavage was 0.0738. With C37G G57U the self-cleavage was 0.141. C37G G57A showed a self-cleavage of 0.13. U8A G69A showed a self-cleavage of 0.375. U9C C10G gave a self-cleavage of 0.582. A11U A64G gave a self-cleavage of 0.588. With C10A U58G the self-cleavage was 0.592. With C4U G34C the self-cleavage was 1.03. In the case of G25A U63C, the self-cleavage is reported as 0.17. For C50G U67C, the self-cleavage was 0.0994. For U2A G54U, the self-cleavage was 0.119. G13C U63A gave a self-cleavage of 0.173. With C10U A23U the self-cleavage was 0.652. Work on G21A A36G yielded a self-cleavage of 0.959. A30U G69C gave a self-cleavage of 0.0465. In the case of C3U C12A, the self-cleavage is reported as 0.546. G13U U55A gave a self-cleavage of 0.263. With G54C A59C the self-cleavage was 0.195. In the case of G15U A45G, the self-cleavage is reported as 0.184. Variant A22G U60G has a self-cleavage of 0.416. C12U U58C showed a self-cleavage of 1. In the case of A30C U67C, the self-cleavage is reported as 0.0679. C4G G68A gave a self-cleavage of 0.084. C4U G69C showed a self-cleavage of 0.204. A39U G54C showed a self-cleavage of 0.0503. With C4G U8G the self-cleavage was 0.0927. U33C G42U showed a self-cleavage of 0.115. Work on C37U A43U yielded a self-cleavage of 0.0491. For G40A A47G, the self-cleavage was 0.138. U7C U33C gave a self-cleavage of 0.157. U53C U62G gave a self-cleavage of 0.122. For U53G A61C, the self-cleavage was 0.0932. Variant G54U U55C has a self-cleavage of 0.18. In the case of C46G C50A, the self-cleavage is reported as 0.0593. Work on U7A A26C yielded a self-cleavage of 0.174. In the case of C18U A35G, the self-cleavage is reported as 0.986. In the case of C3A G27U, the self-cleavage is reported as 0.15. Work on C3G C66G yielded a self-cleavage of 0.0857. U53G G57U showed a self-cleavage of 0.164. With C18U G29U the self-cleavage was 0.172. C12A G51A showed a self-cleavage of 0.898. Work on C50G G54U yielded a self-cleavage of 0.441. U5C G32U showed a self-cleavage of 0.132. A23U U60G showed a self-cleavage of 0.569. For U33A A43C, the self-cleavage was 0.219. With A31C C65A the self-cleavage was 0.0267. U5G G69U showed a self-cleavage of 0.247. A43U showed a self-cleavage of 0.151. G15A G54U gave a self-cleavage of 0.737. U33A C66G showed a self-cleavage of 0.101. For U14C C50U, the self-cleavage was 0.265. C38G U63A gave a self-cleavage of 0.117. With U7A G57A the self-cleavage was 0.128. Work on G15U A64U yielded a self-cleavage of 0.139. U8C G69U showed a self-cleavage of 0.186. For C66G U67G, the self-cleavage was 0.211.
